Values joined by “and” are separate entries in the source; they are usually repeats but may differ in a detail not shown here. Identical values can stand only once.

In assay [1] the target is Fc region of human immunoglobulin (human). Description: pH 4.5.
Assay [2] has the same target. In words: pH 7.4.
The target is the same in assay [3]. Description: SPR, Fc immobilised, neutral region. (Surface plasmon resonance follows binding to a sensor surface in real time, without labels.)
For assay [4] the target is unchanged. Description: SPR, Fc immobilised, weakly acidic region.
In assay [5] the target is IgG1 type humanized monoclonal antibody.
The target is the same in assay [6]. Description: SPR, IgG1 antibody immobilised, pH 7.4.
For assay [7] the target is unchanged. This is another data set of the same source.
The target is the same in assay [8]. The source holds these as a separate data set.
Assay [9] deals with human immunoglobulin IgG.
In assay [10] the target is human immunoglobulin IgG. The source holds these as a separate data set.

B1: M-PG07 (designed binder)
chain: MDTYKLILNGKTLKGETTTEAVDAATAEKVFKQYANEHGVDGEWTYDPETKTFTVTE
As a reminder, the Kd is the equilibrium constant for the complex coming apart. A low value points to higher affinity. Turning to B1, the figures for the Kd in assay [1] and in assay [2] were 230 nM and 290 nM, respectively.

B2: M-PG19 (designed binder)
chain: MDTYKLILNGKTLKGETTTEAVDAATAEKVFKHYANEHGVHGHWTYDPETKTFTVTE
Take B2: the Kd worked out at 1000 nM in assay [1], 43 nM in assay [2] and 19 nM in assay [5]. This molecule showed a fold of avidity in the neutral region against M-PG01 in [3] of 11 times. In addition, the fold of affinity in the acidic region against M-PG01 in assay [4] amounted to 0.6 times.

B3: CGB19H-3D (designed binder)
chain: MAYYDPETGTWYSGGRDTYKLILNGKTLKGETTTEAVDAATAEKVFKHYANEHGVHGHWTYDPETKTFTVTERPEVIDASELTPAVDTYKLILNGKTLKGETTTEAVDAATAEKVFKHYANEHGVHGHWTYDPETKTFTVTERPEVIDASELTPAVDTYKLILNGKTLKGETTTEAVDAATAEKVFKHYANEHGVHGHWTYDPETKTFTVTERPEVIDASELTPAVGGGGCHHHHHH
In [6], B3 gave a fold avidity improvement against M-PG19 of 190 fold and a fold difference of the dissociation rate constant against M-PG19 of 370 times. Also, the Binding Rate of Antibody after Running Buffer for 10 min (Binding portion) in assay [7] is 62.5% and 69.6%. The Kd in [5] worked out at 0.1 nM. In assay [8], the Dissociation Rate of Antibody at an acidic pH, pH2 (30s) later was 51.2% and 67.4%; the Dissociation Rate of Antibody at an acidic pH, pH3 (30s) later was 36.2% and 29.9%; the Dissociation Rate of Antibody at an acidic pH, pH5 (30s) later was 6.4% and 4.6%.

B4: CGB19H-1D (designed binder)
chain: MAYYDPETGTWYSGGRDTYKLILNGKTLKGETTTEAVDAATAEKVFKHYANEHGVHGHWTYDPETKTFTVTERPEVIDASELTPAVGGGGSGGGGSGGGGSGGGGCHHHHHH
Consider B4, for which the Binding Rate of Antibody after Running Buffer for 10 min (Binding portion) in assay [7] was determined as 52.6%. In addition, in [8], the Dissociation Rate of Antibody at an acidic pH, pH2 (30s) later was 52.7%; the Dissociation Rate of Antibody at an acidic pH, pH3 (30s) later was determined as 35.1%; the Dissociation Rate of Antibody at an acidic pH, pH5 (30s) later turned out to be 7.1%.

B5: CGB19H-5D (designed binder)
chain: MAYYDPETGTWYSGGRDTYKLILNGKTLKGETTTEAVDAATAEKVFKHYANEHGVHGHWTYDPETKTFTVTERPEVIDASELTPAVDTYKLILNGKTLKGETTTEAVDAATAEKVFKHYANEHGVHGHWTYDPETKTFTVTERPEVIDASELTPAVDTYKLILNGKTLKGETTTEAVDAATAEKVFKHYANEHGVHGHWTYDPETKTFTVTERPEVIDASELTPAVDTYKLILNGKTLKGETTTEAVDAATAEKVFKHYANEHGVHGHWTYDPETKTFTVTERPEVIDASELTPAVDTYKLILNGKTLKGETTTEAVDAATAEKVFKHYANEHGVHGHWTYDPETKTFTVTERPEVIDASELTPAVGGGGSGGGGSGGGGSGGGGCHHHHHH
Take B5: the Binding Rate of Antibody after Running Buffer for 10 min (Binding portion) in assay [7] was 65.2% and 82.7%. In assay [8], the Dissociation Rate of Antibody at an acidic pH, pH2 (30s) later was 63.4% and 81.8%; the Dissociation Rate of Antibody at an acidic pH, pH5 (30s) later was 5.6% and 2.1%.

B6: CGB19H-4D (designed binder)
chain: MAYYDPETGTWYSGGRDTYKLILNGKTLKGETTTEAVDAATAEKVFKHYANEHGVHGHWTYDPETKTFTVTERPEVIDASELTPAVDTYKLILNGKTLKGETTTEAVDAATAEKVFKHYANEHGVHGHWTYDPETKTFTVTERPEVIDASELTPAVDTYKLILNGKTLKGETTTEAVDAATAEKVFKHYANEHGVHGHWTYDPETKTFTVTERPEVIDASELTPAVDTYKLILNGKTLKGETTTEAVDAATAEKVFKHYANEHGVHGHWTYDPETKTFTVTERPEVIDASELTPAVGGGGSGGGGSGGGGSGGGGCHHHHHH
In the case of B6, the Binding Rate of Antibody after Running Buffer for 10 min (Binding portion) in assay [7] is 59.4% and 77.8%. Moreover, in assay [8], the Dissociation Rate of Antibody at an acidic pH, pH2 (30s) later is 55.6% and 76.3%; the Dissociation Rate of Antibody at an acidic pH, pH3 (30s) later is 34.6% and 18.6%; the Dissociation Rate of Antibody at an acidic pH, pH5 (30s) later is 6.9% and 3.7%.

B7: OXADac-PG14 (designed binder)
chain: MGAGTPVTAPLAGTIWKVLASEGQTVAAGEVLLILEAMKMETEIRAAQAGTVRGIAVKAGDAVAVGDTLMTLAGSGSDLYDDDDKGIITSLYKKAGSAAAPFTDTYKLILNGKTLKGETTTEAVDAATAEKVFKQYANEHGVDGHWTYDPETKTFTVTE
What is called koff is the rate constant with which the complex falls apart. Consider B7, for which, in assay [9], the Ratio of the remaining amount of antibody by SPR sensor gram at pH 4.0 is 71% and the koff came out at 0.04 s⁻¹.

B8: OXADac-PG07 (designed binder)
chain: MGAGTPVTAPLAGTIWKVLASEGQTVAAGEVLLILEAMKMETEIRAAQAGTVRGIAVKAGDAVAVGDTLMTLAGSGSDLYDDDDKGIITSLYKKAGSAAAPFTDTYKLILNGKTLKGETTTEAVDAATAEKVFKQYANEHGVDGEWTYDPETKTFTVTE
As for B8, in assay [9], the Ratio of the remaining amount of antibody by SPR sensor gram at pH 4.0 turned out to be 93% and the koff worked out at 0.00011 s⁻¹.

B9: OXADac-PG16 (designed binder)
chain: MGAGTPVTAPLAGTIWKVLASEGQTVAAGEVLLILEAMKMETEIRAAQAGTVRGIAVKAGDAVAVGDTLMTLAGSGSDLYDDDDKGIITSLYKKAGSAAAPFTDTYKLILNGKTLKGETITEAVDAATAEKVFKQYANEHGVDGEWTYDPETKTFTVTE
For the molecule B9, in [9], the Ratio of the remaining amount of antibody by SPR sensor gram at pH 4.0 was determined as 94% and the koff was 0.00013 s⁻¹.

B10: OXADac-PG13 (designed binder)
chain: MGAGTPVTAPLAGTIWKVLASEGQTVAAGEVLLILEAMKMETEIRAAQAGTVRGIAVKAGDAVAVGDTLMTLAGSGSDLYDDDDKGIITSLYKKAGSAAAPFTDTYKLILNGKTLKGETTTEAVDAATAEKVFKQYANEHGVHGEWTYDPETKTFTVTE
Regarding B10, in assay [9], the Ratio of the remaining amount of antibody by SPR sensor gram at pH 4.0 came out at 64% and the koff was determined as 0.06 s⁻¹.

B11: OXADac-PG15 (designed binder)
chain: MGAGTPVTAPLAGTIWKVLASEGQTVAAGEVLLILEAMKMETEIRAAQAGTVRGIAVKAGDAVAVGDTLMTLAGSGSDLYDDDDKGIITSLYKKAGSAAAPFTDTYKLILNGKRLKGETTTEAVDAATAEKVFKQYANEHGVDGEWTYDPETKTFTVTE
Regarding B11, in assay [9], the Ratio of the remaining amount of antibody by SPR sensor gram at pH 4.0 worked out at 90% and the koff worked out at 0.00044 s⁻¹.

B12: OXADac-PG17 (designed binder)
chain: MGAGTPVTAPLAGTIWKVLASEGQTVAAGEVLLILEAMKMETEIRAAQAGTVRGIAVKAGDAVAVGDTLMTLAGSGSDLYDDDDKGIITSLYKKAGSAAAPFTDTYKLILNGKRLKGETITEAVDAATAEKVFKQYANEHGVDGEWTYDPETKTFTVTE
For B12, in [9], the Ratio of the remaining amount of antibody by SPR sensor gram at pH 4.0 turned out to be 86% and the koff turned out to be 0.032 s⁻¹.

B13: OXADac-PG20 (designed binder)
chain: MGAGTPVTAPLAGTIWKVLASEGQTVAAGEVLLILEAMKMETEIRAAQAGTVRGIAVKAGDAVAVGDTLMTLAGSGSDLYDDDDKGIITSLYKKAGSAAAPFTDTYKLILNGKTLKGETTTEAVHAATAEKVFKHYANEHGVHGHWTYDPETKTFTVTE
On to B13, for which, in [9], the Ratio of the remaining amount of antibody by SPR sensor gram at pH 4.0 came to 58%.

B14: OXADac-PG19 (designed binder)
chain: MGAGTPVTAPLAGTIWKVLASEGQTVAAGEVLLILEAMKMETEIRAAQAGTVRGIAVKAGDAVAVGDTLMTLAGSGSDLYDDDDKGIITSLYKKAGSAAAPFTDTYKLILNGKTLKGETTTEAVDAATAEKVFKHYANEHGVHGHWTYDPETKTFTVTE
On to B14, for which, in [10], the increase of the dissociation rate constant against the wild-type was found to be 1000 fold and the percent of adsorbed IgG dissociated at pH 4.0 worked out at 60%. In [9], the Ratio of the remaining amount of antibody by SPR sensor gram at pH 4.0 is 38% and the koff was determined as 0.27 s⁻¹.

(Values after patent US20140221613A1.)
